Experimental findings from paper PMC13168374, “Reversible DNA condensation drives natural transformation” are described below.

Data set [1] has as its target ComEA from Geobacillus stearothermophilus, soluble truncation lacking the N-terminal sequence (amino acids 60-207) (Geobacillus stearothermophilus).
Data set [2] has the same target. The source holds these as a separate data set.
Data set [3] has the same target. This is another data set of the same source.
The target in data set [4] is T1, ComEA A108Y A108Y (Geobacillus stearothermophilus) (UniProt A0A0K9HI54).
T1 sequence: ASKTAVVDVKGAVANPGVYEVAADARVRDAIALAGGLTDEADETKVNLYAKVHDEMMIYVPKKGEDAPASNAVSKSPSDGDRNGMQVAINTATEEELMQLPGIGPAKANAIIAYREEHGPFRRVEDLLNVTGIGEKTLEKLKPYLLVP
The data set is described as follows: optical tweezers overstretching. Particulars: EC50 of overstretch force increase; Ymax 12.7 pN; 23 C; FP: 20 mM Tris-HCl pH 7.5, 200 mM KCl, 80 nM DNA, ~20 C (spin at 20 C; read temperature not stated); optical tweezers 23 +/- 1 C, buffer not given in material.

Data set [5] deals with ComEA LL ins19aa;after;143 (Geobacillus stearothermophilus) (UniProt A0A0K9HI54). Kind of data set: optical tweezers overstretching. The note with it: FP: 20 mM Tris-HCl pH 7.5, 200 mM KCl, 80 nM DNA, ~20 C (spin at 20 C; read temperature not stated); optical tweezers 23 +/- 1 C, buffer not given in material.
For data set [6], the target named is T2, ComEA deltaL internal_change (Geobacillus stearothermophilus) (UniProt A0A0K9HI54).
T2 sequence: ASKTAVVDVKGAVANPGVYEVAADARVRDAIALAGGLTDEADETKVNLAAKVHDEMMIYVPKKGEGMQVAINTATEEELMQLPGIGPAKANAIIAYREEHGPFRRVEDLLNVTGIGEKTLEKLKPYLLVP
The data set is described as follows: optical tweezers overstretching. The note with it: FP: 20 mM Tris-HCl pH 7.5, 200 mM KCl, 80 nM DNA, ~20 C (spin at 20 C; read temperature not stated); optical tweezers 23 +/- 1 C, buffer not given in material.

In data set [7] the target is T3, ComEA (soluble truncation) (Geobacillus stearothermophilus, UniProt A0A0K9HI54 60-207).
T3 sequence: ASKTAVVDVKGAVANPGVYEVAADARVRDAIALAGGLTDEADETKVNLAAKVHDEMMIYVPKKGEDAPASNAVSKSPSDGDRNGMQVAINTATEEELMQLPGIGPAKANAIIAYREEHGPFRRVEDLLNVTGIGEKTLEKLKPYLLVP
The data set is described as follows: optical tweezers overstretching. The note with it: EC50 of overstretch force increase; Ymax 28.6 pN; 23 C; FP: 20 mM Tris-HCl pH 7.5, 200 mM KCl, 80 nM DNA, ~20 C (spin at 20 C; read temperature not stated); optical tweezers 23 +/- 1 C, buffer not given in material.

The target in a further data set is T4, ComEA A108Y (Geobacillus stearothermophilus, UniProt A0A0K9HI54 60-207, A108Y).
T4 sequence: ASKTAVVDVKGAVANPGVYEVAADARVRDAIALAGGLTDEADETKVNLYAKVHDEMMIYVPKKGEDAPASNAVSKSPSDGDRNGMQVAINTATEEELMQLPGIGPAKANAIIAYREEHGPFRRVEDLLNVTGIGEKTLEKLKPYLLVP
The data set is described as follows: fluorescence polarization; Hill coefficient 0.96 +/- 0.16; FP: 20 mM Tris-HCl pH 7.5, 200 mM KCl, 80 nM DNA, ~20 C (spin at 20 C; read temperature not stated); optical tweezers 23 +/- 1 C, buffer not given in material. The note with it: protein: recombinant; label: 3'-fluorescein (36-FAM) on strand 1; blunt. Background: Fluorescence polarisation rises when a labelled molecule tumbles more slowly, as on binding a larger partner.

Data set [8] deals with T3, ComEA (soluble truncation). Kind of data set: fluorescence polarization; Hill coefficient 1.56 +/- 0.28; FP: 20 mM Tris-HCl pH 7.5, 200 mM KCl, 80 nM DNA, ~20 C (spin at 20 C; read temperature not stated); optical tweezers 23 +/- 1 C, buffer not given in material. Particulars: protein: recombinant; label: 3'-fluorescein (36-FAM) on strand 1; blunt.
The target in another data set is T5, ComEA deltaL (Geobacillus stearothermophilus, UniProt A0A0K9HI54 60-124+143-207, internal_change).
T5 sequence: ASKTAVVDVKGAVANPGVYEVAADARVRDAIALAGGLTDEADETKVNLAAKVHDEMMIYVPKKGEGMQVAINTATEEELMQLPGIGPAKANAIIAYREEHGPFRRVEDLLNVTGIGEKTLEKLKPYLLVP
The data set is described as follows: fluorescence polarization; Kd within error of ComEA; Hill >1; value in Fig. 5c only; FP: 20 mM Tris-HCl pH 7.5, 200 mM KCl, 80 nM DNA, ~20 C (spin at 20 C; read temperature not stated); optical tweezers 23 +/- 1 C, buffer not given in material. Particulars: protein: recombinant; label: 3'-fluorescein (36-FAM) on strand 1; blunt.

The molecule “ComEA from Geobacillus stearothermophilus, soluble truncation lacking the N-terminal sequence (amino acids 60-207) (domain or fragment)” had a condensation force produced and held for at least 1 s during the 10 s rest phase, optical tweezers, 20 nM-4 µM ComEA (value at 200 nM; buffer alone 0.03 pN) in [1] of 0.11 pN. The condensation force from an eWLC fit of the DNA released per cycle against the extension held in the rest phase, optical tweezers in [2] stood at 0.07 pN. For the same molecule, in data set [3], the fold condensation of 5.495 kbp dsDNA (bounding circle radius, negative stain electron microscopy), 200 nM-4 µM ComEA, peak value is 3.5 fold.
Turning to 6 kbp dsDNA (optical tweezers), the K half was 210 nM in data set [4], 330 nM in data set [5], 380 nM in [6] and 290 nM in data set [7].

B1: 30 bp DNA duplex (dsDNA)
DNA 1: GCACTGTGAATATCACTACAGCAACCTTGA
DNA 2: TCAAGGTTGCTGTAGTGATATTCACAGTGC
As to B1, the Kd worked out at 1910 ± 520 nM with ComEA A108Y and 660 ± 80 nM in data set [8]. Moreover, in the data set with ComEA deltaL, the binding result was “binds”.

By Kd is commonly meant the free concentration of one partner at which half of the binding sites on the other are occupied at equilibrium, for simple one-to-one binding.
